Reference: publication PMC3530532, “Corticosteroid-Binding Globulin: Structure-Function Implications from Species Differences” (PLoS ONE, 2012)
Substitutions are numbered along the chain they refer to. Names and notes keep the numbering of the source.

T1: Rat CBG-WT (Rattus norvegicus, UniProt P31211)
T1 construct: residues 5 to 374 of rat CBG (P31211); GST (N, cleaved yes); made in house; host or cells: E. coli BL21 Star (DE3)
T1 sequence (P31211 27-396): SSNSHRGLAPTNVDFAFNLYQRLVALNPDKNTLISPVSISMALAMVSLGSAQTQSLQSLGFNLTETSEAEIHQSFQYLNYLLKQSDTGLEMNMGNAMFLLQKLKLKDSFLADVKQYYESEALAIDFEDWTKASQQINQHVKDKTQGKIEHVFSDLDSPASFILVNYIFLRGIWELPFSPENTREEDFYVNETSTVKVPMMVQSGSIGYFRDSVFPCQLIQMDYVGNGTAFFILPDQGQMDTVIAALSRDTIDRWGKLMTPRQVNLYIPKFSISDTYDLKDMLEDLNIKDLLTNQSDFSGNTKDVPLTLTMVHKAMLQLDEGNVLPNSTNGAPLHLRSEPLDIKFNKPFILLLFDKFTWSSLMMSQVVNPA

B1: CBG-RCL2: rat CBG variant CBG-RCL1 plus mutations P329T and N333T (protein, UniProt P31211 23-396, looked up, variant A335V P336T P329T N333T)
Corticosteroid-binding …: STNESSNSHRGLAPTNVDFAFNLYQRLVALNPDKNTLISPVSISMALAMVSLGSAQTQSLQSLGFNLTETSEAEIHQSFQYLNYLLKQSDTGLEMNMGNAMFLLQKLKLKDSFLADVKQYYESEALAIDFEDWTKASQQINQHVKDKTQGKIEHVFSDLDSPASFILVNYIFLRGIWELPFSPENTREEDFYVNETSTVKVPMMVQSGSIGYFRDSVFPCQLIQMDYVGNGTAFFILPDQGQMDTVIAALSRDTIDRWGKLMTPRQVNLYIPKFSISDTYDLKDMLEDLNIKDLLTNQSDFSGNTKDVPLTLTMVHKAMLQLDEGNVLTNSTTGVTLHLRSEPLDIKFNKPFILLLFDKFTWSSLMMSQVVNPA
B2: CBG-RCL3: rat CBG variant CBG-RCL2 plus R174K, D323N, G325E and N326G (protein, UniProt P31211 23-396, looked up, variant A335V P336T P329T N333T R174K D323N G325E N326G)
Corticosteroid-binding …: B1 Corticosteroid-binding … with R174K, D323N, G325E, N326G

Assays:
[1] = Thermal denaturation monitored by CD spectroscopy; assay type: physicochemical; settings: for thermal unfolding temperature / thermal stability: CD at 222 or 220 nm, 1°C/min, 10 mM potassium phosphate pH 7.4; for change of thermal stability upon RCL cleavage: elastase-cleaved vs uncleaved, CD-monitored
Description: Heat-induced unfolding transitions were recorded at protein concentrations between 0.5 and 0.7 µM in 10 mM potassium phosphate (pH 7.4). The samples were heated at a rate of 1°C/min in a 1 cm cell and the ellipticity was monitored at 222 or 220 nm. The sensitivity was set to 50 mdeg with a bandwidth of 1 nm and 8 sec response time.

Rat CBG-WT = biological target: T1, Rat CBG-WT; assay: Isothermal titration calorimetry, steroid titrated to rat CBG-WT; assay type: binding; settings: ITC, 25°C
Description: The coding sequences of residues 11 to 383 of human CBG (Swiss-Prot entry P08185) and residues 5 to 374 of rat CBG (P31211) were cloned into a pGEX-2T vector (GE Healthcare, Uppsala), yielding N-terminal glutathione-S-transferase (GST) fusion proteins. Mutations were introduced using a two-stage PCR procedure based on the QuikChange (Stratagene, Santa Clara) site-directed mutagenesis protocol. All experiments with human CBG were conducted with a mutant in which surface residue Lys126 was replaced by alanine in order to facilitate crystallization. Wild-type rat CBG (rat CBG-WT) and rat CBG mutants CBG-RCL1, CBG-RCL2 and CBG-RCL3 were produced to probe the function of the RCL residues in rat CBG. All gene constructs were confirmed by DNA sequencing prior to protein production.
The GST-tagged human and rat CBG variants were produced in E. coli BL21 Star™ (DE3) cells (Invitrogen, Carlsbad) using the ZYM-5052 auto-inducing medium. For each variant, 10 L of ZYM-5052 medium containing 100 µg/mL ampicillin were inoculated with an overnight culture of a single clone. The flasks were incubated at 37°C until the optical density at 600 nm reached 0.3. The temperature was then lowered to 20°C, and the cells were allowed to grow for an additional 20 h. The pellet was resuspended in PBS buffer (pH 7.4) containing 5 mM EDTA after cell harvesting (4 mL of buffer per gram of pellet).
The protein samples were dialyzed against ITC buffer (20 mM potassium phosphate, 50 mM NaCl, pH 7.4) and titrated with steroids in a VP-ITC microcalorimeter (Microcal, Piscataway). All solutions were filtered (0.2 µm filter pore size) and degassed for 30 min prior to the titration experiments. The sample cell was filled with protein solution containing 15 µM rat CBG or 20 µM human CBG and titrated with steroid solutions containing 150 µM and 200 µM ligand, respectively. The titrations consisted of an initial injection of 2 µL followed by 25 consecutive injections of 10 µL ligand solution at 25°C. A spacing of 240 sec between the injections was used to allow a return to the baseline. Data points from the initial injection, which are generally affected by diffusion during the initial equilibration period after experiment setup, were discarded prior to data analysis. […] The binding curve was generated by plotting the heats of injections against the ratio of ligand to protein in the cell. Integrated heat data were analyzed using nonlinear regression fit with a one-site-binding model in the Origin-7™ software provided with the VP-ITC. Changes in the free energy and entropy can be calculated using the equation: ΔG° = −RTlnK = ΔH°−TΔS°. In this equation ΔG° is the change in Gibbs free energy, R the universal gas constant, T the temperature, and K the association constant. The change in enthalpy is denoted as ΔH°, and ΔS° is the change in entropy under standard conditions. The data shown in Table 2 were obtained from single titrations of each complex.

Molecule | thermal unfolding temperature / thermal stability [1] | change of thermal stability upon RCL cleavage [1] | further results
uncleaved human alpha-1-antitrypsin: human alpha-1-antitrypsin, archetypical member of the SERPIN family, used to validate the setup | about 60 °C |  | 
cleaved human alpha-1-antitrypsin: human alpha-1-antitrypsin after cleavage of the RCL | 90 °C |  | 
C[C@]12C[C@H](O)[C@H]3[C@@H](CCC4=CC(=O)CC[C@@]43C)[C@@H]1CC[C@@H]2C(=O)CO [Corticosterone] |  |  | TΔS° (Rat CBG-WT; rat CBG-WT): -14.6 kcal/mol; ΔG° (Rat CBG-WT; rat CBG-WT): -10.2 kcal/mol; ΔH° (Rat CBG-WT; rat CBG-WT): -24.76 kcal/mol; Kd (Rat CBG-WT; single titration, uncleaved rat CBG-WT): 37 ± 2 nM
B1 |  | neither of these humanized rat CBG variants displayed an increased thermal stability | 
B2 |  | neither of these humanized rat CBG variants displayed an increased thermal stability | 
